B1: Protein PTHB1 (Homo sapiens), Q3SYG4 (parent)
chain: MSLFKARDWWSTILGDKEEFDQGCLCLANVDNSGNGQDKIIVGSFMGYLRIFSPHPAKTGDGAQAEDLLLEVDLRDPVLQVEVGKFVSGTEMLHLAVLHSRKLCVYSVSGTLGNVEHGNQCQMKLMYEHNLQRTACNMTYGSFGGVKGRDLICIQSMDGMLMVFEQESYAFGRFLPGFLLPGPLAYSSRTDSFLTVSSCQQVESYKYQVLAFATDADKRQETEQQKLGSGKRLVVDWTLNIGEQALDICIVSFNQSASSVFVLGERNFFCLKDNGQIRFMKKLDWSPSCFLPYCSVSEGTINTLIGNHNNMLHIYQDVTLKWATQLPHIPVAVRVGCLHDLKGVIVTLSDDGHLQCSYLGTDPSLFQAPNVQSRELNYDELDVEMKELQKIIKDVNKSQGVWPMTEREDDLNVSVVVSPNFDSVSQATDVEVGTDLVPSVTVKVTLQNRVILQKAKLSVYVQPPLELTCDQFTFEFMTPDLTRTVSFSVYLKRSYTPSELEGNAVVSYSRPTDRNPDGIPRVIQCKFRLPLKLICLPGQPSKTASHKITIDTNKSPVSLLSLFPGFASQSDDDQVNVMGFHFLGGARITVLASKTSQRYRIQSEQFEDLWLITNELILRLQEYFEKQGVKDFACSFSGSIPLQEYFELIDHHFELRINGEKLEELLSERAVQFRAIQRRLLARFKDKTPAPLQHLDTLLDGTYKQVIALADAVEENQGNLFQSFTRLKSATHLVILLIALWQKLSADQVAILEAAFLPLQEDTQELGWEETVDAAISHLLKTCLSKSSKEQALNLNSQLNIPKDTSQLKKHITLLCDRLSKGGRLCLSTDAAAPQTMVMPGGCTTIPESDLEERSVEQDSTELFTNHRHLTAETPRPEVSPLQGVSE
partner: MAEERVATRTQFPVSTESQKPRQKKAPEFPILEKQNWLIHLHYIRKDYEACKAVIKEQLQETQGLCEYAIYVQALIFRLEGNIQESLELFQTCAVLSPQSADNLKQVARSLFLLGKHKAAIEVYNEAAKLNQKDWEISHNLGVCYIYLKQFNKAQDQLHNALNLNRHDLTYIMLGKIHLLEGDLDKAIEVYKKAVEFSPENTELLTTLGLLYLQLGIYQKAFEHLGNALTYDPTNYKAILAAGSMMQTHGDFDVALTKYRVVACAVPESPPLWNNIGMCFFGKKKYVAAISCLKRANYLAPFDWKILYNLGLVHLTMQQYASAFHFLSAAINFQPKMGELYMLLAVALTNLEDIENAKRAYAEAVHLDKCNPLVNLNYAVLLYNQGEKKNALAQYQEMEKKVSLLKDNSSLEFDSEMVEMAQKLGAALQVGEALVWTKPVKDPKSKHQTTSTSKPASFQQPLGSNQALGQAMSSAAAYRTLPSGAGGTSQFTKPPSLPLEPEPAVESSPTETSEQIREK

In the test the parent is B1. The conditions noted are these: with bbs4_human BBS4, Q96RK4.
Take L591K: the “effect of a mutation on the interaction” value is recorded as “with no effect”.

In the case of L591A, the “effect of a mutation on the interaction” value is “with no effect”. With L591E, the “effect of a mutation on the interaction” value is listed as “with no effect”.

As to Y623E, the “effect of a mutation on the interaction” value was “with no effect”. In the case of Y623K it was “with no effect”; in that of Y623A, “with no effect”; in that of E622K, “with no effect”. Take E622A: the “effect of a mutation on the interaction” value is given as “with no effect”. In the case of F636E it was “with no effect”; in that of F636K, “with no effect”; in that of F636A, “with no effect”. In the case of I612A it was “with no effect”; in that of I612K, “with no effect”; in that of I612E, “with no effect”. In the case of L616K it was “with no effect”; in that of L616A, “with no effect”.

Turning to L616E, the “effect of a mutation on the interaction” value is “with no effect”. In the case of L616P it was “disrupting interaction strength”; in that of Q627K, “with no effect”; in that of Q627E, “with no effect”. In the case of Q627A it was “with no effect”. For N614A, the “effect of a mutation on the interaction” value is recorded as “with no effect”. In the case of N614K it was “with no effect”; in that of N614E, “with no effect”. In the case of A586E it was “with no effect”; in that of A586K, “with no effect”; in that of G628A, “with no effect”.

With G628K, the “effect of a mutation on the interaction” value was “with no effect”.

In the case of G628E, the “effect of a mutation on the interaction” value is given as “with no effect”. On to Y599A, for which the “effect of a mutation on the interaction” value is reported as “with no effect”. In the case of Y599E it was “with no effect”; in that of Y599K, “with no effect”; in that of K594A, “with no effect”. In the case of K594E it was “with no effect”.

Regarding T589I, the “effect of a mutation on the interaction” value is recorded as “disrupting interaction strength”. In the case of T589E it was “with no effect”; in that of T589A, “disrupting interaction strength”. In the case of T589K it was “with no effect”; in that of S635K, “with no effect”. In the case of S635A it was “with no effect”; in that of S635E, “with no effect”; in that of T613E, “with no effect”. On to T613K, for which the “effect of a mutation on the interaction” value was “with no effect”. In the case of T613I it was “disrupting interaction strength”; in that of T613A, “with no effect”; in that of E607A, “with no effect”. In the case of E607K it was “with no effect”. Regarding G638K, the “effect of a mutation on the interaction” value was “with no effect”. In the case of G638A it was “with no effect”; in that of G638E, “with no effect”. In the case of S593K, the “effect of a mutation on the interaction” value is reported as “with no effect”.

With S593E, the “effect of a mutation on the interaction” value was “with no effect”.

As to S593A, the “effect of a mutation on the interaction” value is listed as “with no effect”.

Regarding S637A, the “effect of a mutation on the interaction” value is on record as “with no effect”. In the case of S637E it was “with no effect”; in that of S637K, “with no effect”; in that of Q621K, “with no effect”.

Turning to Q621E, the “effect of a mutation on the interaction” value is reported as “with no effect”. In the case of Q621A it was “with no effect”; in that of R600A, “with no effect”. In the case of R600E it was “with no effect”; in that of R600K, “with no effect”; in that of R600G, “disrupting interaction strength”. In the case of D631E it was “with no effect”; in that of D631A, “with no effect”; in that of D631K, “with no effect”. As for P641A, the “effect of a mutation on the interaction” value is given as “with no effect”. In the case of P641K it was “with no effect”; in that of P641E, “with no effect”; in that of F646A, “with no effect”. In the case of Q597K it was “with no effect”; in that of Q597R, “disrupting interaction strength”. In the case of Q597A it was “with no effect”. Regarding Q597E, the “effect of a mutation on the interaction” value is “with no effect”. As for I617T, the “effect of a mutation on the interaction” value was “disrupting interaction strength”. In the case of I617E it was “with no effect”.

For the variant I617K, the “effect of a mutation on the interaction” value was “with no effect”. In the case of I617A it was “with no effect”; in that of A592E, “with no effect”; in that of A592K, “with no effect”. In the case of L642K it was “with no effect”; in that of L642E, “with no effect”; in that of L642A, “with no effect”. In the case of I588E it was “with no effect”. In the case of I588K, the “effect of a mutation on the interaction” value is “with no effect”. In the case of I588A it was “with no effect”; in that of T595A, “with no effect”. In the case of T595K it was “with no effect”; in that of T595E, “with no effect”; in that of Q605K, “with no effect”. In the case of Q605A it was “with no effect”. For the variant Q605E, the “effect of a mutation on the interaction” value is “with no effect”. In the case of L609E it was “with no effect”. In the case of L609A it was “with no effect”; in that of L609K, “with no effect”; in that of I640A, “with no effect”. As to I640K, the “effect of a mutation on the interaction” value was “with no effect”. In the case of I640E it was “with no effect”; in that of W610A, “with no effect”; in that of W610K, “with no effect”. In the case of W610E it was “with no effect”. In the case of Y645E it was “with no effect”; in that of Y645K, “with no effect”. Y645A: the “effect of a mutation on the interaction” value is reported as “with no effect”. In the case of S639E it was “with no effect”; in that of S639K, “with no effect”; in that of S639A, “with no effect”. Regarding R619K, the “effect of a mutation on the interaction” value is “with no effect”. In the case of R619A it was “with no effect”; in that of R619E, “with no effect”; in that of L618K, “with no effect”. As to L618A, the “effect of a mutation on the interaction” value is reported as “with no effect”. In the case of L618E it was “with no effect”.

Take Q602K: the “effect of a mutation on the interaction” value is “with no effect”. Consider Q602E, for which the “effect of a mutation on the interaction” value is listed as “with no effect”. In the case of Q602A it was “with no effect”; in that of F632K, “with no effect”; in that of F632E, “with no effect”.

With F632A, the “effect of a mutation on the interaction” value is “with no effect”.

As for Q643E, the “effect of a mutation on the interaction” value was “with no effect”. In the case of Q643K it was “with no effect”; in that of Q643A, “with no effect”; in that of L620E, “with no effect”. In the case of L620P it was “disrupting interaction strength”; in that of L620K, “with no effect”; in that of L620A, “with no effect”. As to I601E, the “effect of a mutation on the interaction” value is on record as “with no effect”.

As for I601A, the “effect of a mutation on the interaction” value is “with no effect”. In the case of I601K it was “with no effect”; in that of R598E, “with no effect”.

As for R598A, the “effect of a mutation on the interaction” value is given as “with no effect”. In the case of R598K it was “with no effect”; in that of F624K, “with no effect”.

For the variant F624A, the “effect of a mutation on the interaction” value is given as “with no effect”. In the case of F624E it was “with no effect”; in that of L611K, “with no effect”; in that of L611A, “with no effect”. In the case of L611C it was “disrupting interaction strength”; in that of L611E, “with no effect”.

Regarding L611F, the “effect of a mutation on the interaction” value is given as “disrupting interaction strength”. In the case of E644K it was “with no effect”. In the case of E644A it was “with no effect”; in that of K626E, “with no effect”.

As for K626A, the “effect of a mutation on the interaction” value is “with no effect”. In the case of E615K it was “with no effect”.

For the variant E615A, the “effect of a mutation on the interaction” value is “with no effect”.

As for K630E, the “effect of a mutation on the interaction” value was “with no effect”. In the case of K630A it was “with no effect”.

For A633K, the “effect of a mutation on the interaction” value is recorded as “with no effect”. On to A633E, for which the “effect of a mutation on the interaction” value is given as “with no effect”. Regarding D608A, the “effect of a mutation on the interaction” value was “with no effect”.

With D608E, the “effect of a mutation on the interaction” value was “with no effect”. In the case of D608K it was “with no effect”; in that of S603K, “with no effect”. In the case of S603E it was “with no effect”; in that of S603N, “disrupting interaction strength”; in that of S603A, “with no effect”. As for F606K, the “effect of a mutation on the interaction” value is on record as “with no effect”. In the case of F606A it was “with no effect”; in that of F606E, “with no effect”; in that of E604K, “with no effect”. In the case of E604A it was “with no effect”; in that of E625K, “with no effect”; in that of E625A, “with no effect”. V629E: the “effect of a mutation on the interaction” value is given as “with no effect”. In the case of V629A it was “with no effect”; in that of V629K, “with no effect”; in that of V629I, “disrupting interaction strength”. In the case of R587E it was “with no effect”; in that of R587A, “with no effect”; in that of R587K, “with no effect”.

With R587T, the “effect of a mutation on the interaction” value is “disrupting interaction strength”. In the case of S596A it was “with no effect”. In the case of S596E it was “with no effect”; in that of S596K, “with no effect”; in that of V590K, “with no effect”.

For V590A, the “effect of a mutation on the interaction” value is “with no effect”. In the case of V590E it was “with no effect”; in that of C634E, “with no effect”. In the case of C634A it was “with no effect”; in that of C634K, “with no effect”.
